Reference: paper PMC11229320, “Dynamics of the Herpes simplex virus DNA polymerase holoenzyme during DNA synthesis and proof-reading revealed by Cryo-EM”

Legend:
[1] = target: T1, UL30 DNA polymerase catalytic subunit;UL42 processivity factor (Herpes simplex virus 1 (HHV-1);Herpes …, UniProt P04293;P10226 1-1235;1-488, |); assay: cryo-EM; halted elongation state, dATP in dNTP pocket; 1 mM dATP/dGTP/dTTP/ddCTP mix; Cryo-EM complex buffer not given in material; protein purified in 20 mM HEPES pH 7.8, 400 mM NaCl, 1.5 mM MgCl2, 1 mM DTT, 5% glycerol; conditions: protein: recombinant;recombinant; copies: 1;1; 5' overhang 14 nt on template after extension (22 nt before)
[2] = target: T1, UL30 DNA polymerase catalytic …; assay: cryo-EM; DNA editing (exonuclease) state; also 9ENQ (active site); Cryo-EM complex buffer not given in material; protein purified in 20 mM HEPES pH 7.8, 400 mM NaCl, 1.5 mM MgCl2, 1 mM DTT, 5% glycerol; conditions: protein: recombinant;recombinant; copies: 1;1; 5' overhang 21 nt on template; 1 mismatch (A/G) at primer 3' end
[3] = target: T1, UL30 DNA polymerase catalytic …; assay: cryo-EM; pre-translocation state, open fingers; 2.4 A; Cryo-EM complex buffer not given in material; protein purified in 20 mM HEPES pH 7.8, 400 mM NaCl, 1.5 mM MgCl2, 1 mM DTT, 5% glycerol; conditions: protein: recombinant;recombinant; copies: 1;1; 5' overhang 26 nt on template (22 bp)
[4] = target: T1, UL30 DNA polymerase catalytic …; assay: cryo-EM; DNA editing (exonuclease) state; also 8OJB, 8OJC (active site classes), 8OJD (beta-hairpin loop); Cryo-EM complex buffer not given in material; protein purified in 20 mM HEPES pH 7.8, 400 mM NaCl, 1.5 mM MgCl2, 1 mM DTT, 5% glycerol; conditions: protein: recombinant;recombinant; copies: 1;1; 5' overhang 21 nt on template; 2 mismatches (A/G) at primer 3' end

T1 sequence (P04293 whole entry, chain 1 of 2): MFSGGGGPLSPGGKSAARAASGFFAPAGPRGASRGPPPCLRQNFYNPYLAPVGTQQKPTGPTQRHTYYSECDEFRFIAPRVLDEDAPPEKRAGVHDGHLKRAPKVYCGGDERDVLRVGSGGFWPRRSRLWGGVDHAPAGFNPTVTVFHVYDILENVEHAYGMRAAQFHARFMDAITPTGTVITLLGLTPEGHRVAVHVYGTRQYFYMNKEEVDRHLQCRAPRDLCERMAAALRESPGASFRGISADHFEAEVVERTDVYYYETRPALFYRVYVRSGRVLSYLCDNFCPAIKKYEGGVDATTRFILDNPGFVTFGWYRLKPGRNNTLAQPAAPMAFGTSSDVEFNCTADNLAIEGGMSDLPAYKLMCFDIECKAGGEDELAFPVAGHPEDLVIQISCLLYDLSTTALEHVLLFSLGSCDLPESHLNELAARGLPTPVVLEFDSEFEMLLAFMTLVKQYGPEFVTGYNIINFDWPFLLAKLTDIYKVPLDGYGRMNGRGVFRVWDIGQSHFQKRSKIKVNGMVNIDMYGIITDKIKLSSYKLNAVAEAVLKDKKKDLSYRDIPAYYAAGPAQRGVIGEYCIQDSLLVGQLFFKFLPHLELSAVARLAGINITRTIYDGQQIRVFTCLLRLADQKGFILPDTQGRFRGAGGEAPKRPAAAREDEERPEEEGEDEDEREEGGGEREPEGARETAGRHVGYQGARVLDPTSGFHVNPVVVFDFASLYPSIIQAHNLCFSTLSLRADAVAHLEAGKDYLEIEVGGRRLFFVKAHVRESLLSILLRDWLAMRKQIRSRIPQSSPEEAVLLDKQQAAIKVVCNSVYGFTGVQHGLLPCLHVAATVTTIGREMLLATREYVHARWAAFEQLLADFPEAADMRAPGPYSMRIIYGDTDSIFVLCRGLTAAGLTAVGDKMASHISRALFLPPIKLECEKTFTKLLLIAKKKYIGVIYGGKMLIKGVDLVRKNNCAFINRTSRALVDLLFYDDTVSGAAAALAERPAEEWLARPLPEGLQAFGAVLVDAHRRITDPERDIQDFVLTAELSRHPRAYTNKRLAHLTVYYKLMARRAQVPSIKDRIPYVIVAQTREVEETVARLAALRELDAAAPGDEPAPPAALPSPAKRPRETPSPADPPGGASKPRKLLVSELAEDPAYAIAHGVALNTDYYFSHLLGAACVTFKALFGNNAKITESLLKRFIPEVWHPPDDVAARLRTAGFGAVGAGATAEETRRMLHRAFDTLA
T1 sequence (P10226 whole entry, chain 2 of 2): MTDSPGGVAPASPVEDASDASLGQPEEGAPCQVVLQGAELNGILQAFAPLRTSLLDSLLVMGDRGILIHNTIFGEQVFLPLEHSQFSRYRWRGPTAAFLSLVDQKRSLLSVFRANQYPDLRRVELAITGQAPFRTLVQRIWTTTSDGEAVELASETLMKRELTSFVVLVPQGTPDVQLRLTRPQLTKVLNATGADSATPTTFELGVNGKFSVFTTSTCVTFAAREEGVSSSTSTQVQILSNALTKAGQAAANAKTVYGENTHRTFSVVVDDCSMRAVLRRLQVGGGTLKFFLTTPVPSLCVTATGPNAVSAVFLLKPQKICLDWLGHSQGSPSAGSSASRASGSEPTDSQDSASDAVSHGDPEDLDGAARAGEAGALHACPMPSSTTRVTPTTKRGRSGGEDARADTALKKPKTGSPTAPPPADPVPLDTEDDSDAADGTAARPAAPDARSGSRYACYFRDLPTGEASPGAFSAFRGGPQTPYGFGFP

B1: halted elongation primer-template (ddC-terminated) (dsDNA)
DNA 1: ATTTGCTGACCTTTGTTCTAATTGAGTTGGTTGGACGGCTGCGAGGCGATCAAGGTGTCGTAGTGGC
DNA 2: GCCACTACGACACCTTGATCGCCTCGCAGCCGTCCAACCAACTCAATTAGAAC
modifications: 3'-terminal ddC on primer, added in situ: printed primer S5 extended with dATP, dGTP, dTTP, ddCTP to first template G
binding result [1]: binds

B2: 1-bp mismatch exonuclease primer-template (dsDNA)
DNA 1: ATTTGCTGACCTTTGTTCTGGGTGAGTTGGTTGGACGGCTGCGAGGCGATCAAGGTGTCGTAGTGGC
DNA 2: GCCACTACGACACCTTGATCGCCTCGCAGCCGTCCAACCAACTCAA
modifications: * before each of the last two A of primer (phosphorothioate?; not defined in material)
binding result [2]: binds

B3: pre-translocation primer-template (dsDNA)
DNA 1: CGAAAGTACGTTATTGCGACTGGCCGTCGCTCTACAACGTCGTGACTG
DNA 2: CAGTCACGACGTTGTAGAGCGA
binding result [3]: binds

B4: 2-bp mismatch exonuclease primer-template (dsDNA)
DNA 1: ATTTGCTGACCTTTGTTCTGGGGTGAGTTGGTTGGACGGCTGCGAGGCGATCAAGGTGTCGTAGTGGC
DNA 2: GCCACTACGACACCTTGATCGCCTCGCAGCCGTCCAACCAACTCAAA
modifications: * before each of the last two A of primer (phosphorothioate?; not defined in material)
binding result [4]: binds
